The source of these data is US12290533B2, “Extracellular vesicles and methods of using” (NUtech Ventures, priority 2018, dated 2025).

The test system of this assay is human umbilical vein endothelial cells (HUVEC). As to the kind of experiment: Uptake of fluorophore-labeled cow's milk exosomes into HUVECs. Conditions: exosomal surface proteins removed by proteinase K. The class given is cell-based.

B1: proteinase K: non-specific protease used to remove surface proteins of exosomes or cells (protein, UniProt P06873 106-384, looked up)
Proteinase K: AAQTNAPWGLARISSTSPGTSTYYYDESAGQGSCVYVIDTGIEASHPEFEGRAQMVKTYYYSSRDGNGHGTHCAGTVGSRTYGVAKKTQLFGVKVLDDNGSGQYSTIIAGMDFVASDKNNRNCPKGVVASLSLGGGYSSSVNSAAARLQSSGVMVAVAAGNNNADARNYSPASEPSVCTVGASDRYDRRSSFSNYGSVLDIFGPGTSILSTWIGGSTRSISGTSMATPHVAGLAAYLMTLGKTTAASACRYIADTANKGDLSNIPFGTVNLLAYNNYQA
On to B1, for which the exosome uptake is recorded as ~50 % of controls.
